Assay results: PMC5618617 (International Journal of Molecular Sciences, 2017)
No end group written: not given here. cellulose support = cellulose support (Whatman 50 cellulose membrane) to which the peptide C-terminus is covalently bound

Key:
Conditions in all cases: both partners purified
[1] = target: T1, c-Met peptide F-7 (527–541) (Homo sapiens (Human)., cysteine pairing not given here); test: peptide or protein array; overlapping 15-mer peptides of c-Met 1-932, 5 nmol/spot, bound by the C-terminus to cellulose; scFv in 5% skim milk at 4 °C overnight; bound scFv electroblotted to PVDF and detected with anti-HA-peroxidase
T1 construct: c-Met, human, amino acids 527-541; source: synthetic peptide (JPT Peptide Technologies), on cellulose membrane
T1 chain: SQCLSAPPFVQCGWC-{cellulose support}

[2] = target: T2, c-Met peptide E-7 (523–537) (Homo sapiens (Human)., cysteine pairing not given here); test: as above
T2 construct: c-Met, human, amino acids 523-537; source: synthetic peptide (JPT Peptide Technologies), on cellulose membrane
T2 chain: FQSCSQCLSAPPFVQ-{cellulose support}

[3] = target: T3, c-Met peptide G-7 (531–545) (Homo sapiens (Human)., cysteine pairing not given here); test: as above
T3 construct: c-Met, human, amino acids 531-545; source: synthetic peptide (JPT Peptide Technologies), on cellulose membrane
T3 chain: SAPPFVQCGWCHDKC-{cellulose support}

bovine serum albumin = target: T4, bovine serum albumin (Bos taurus (Bovine)., UniProt P02769); test: SPR; Biacore T100; human c-Met, mouse c-Met or BSA amine-coupled on a CM5 chip; different concentrations of purified IRCR201 injected
T4 construct: serum albumin, bovine; also called BSA

mouse c-Met ECD-Fc = target: T5, mouse c-Met ECD-Fc (Mus musculus, UniProt P16056); test: as above
T5 construct: hepatocyte growth factor receptor (c-Met), mouse, extracellular domain; source: bought: Sino Biological, 50622-M02H

[4] = target: T6, human c-Met extracellular domain (ECD)-fragment crystallizable region (Fc) (human, UniProt P08581); test: as above
T6 construct: hepatocyte growth factor receptor (c-Met), human, extracellular domain; c-Met is naturally cut into alpha and beta chains; also called human c-Met ECD-Fc; recombinant human whole c-Met ECD-Fc; source: bought: Sino Biological, 10692-H03H

[5] = target: T7, human RON (recepteur d'origine nantais) ECD-Fc (Homo sapiens, UniProt Q04912); test: ELISA; 0.1 µg antigen coated per well at 4 °C overnight, blocked with 3% skim milk; dilutions of IRCR201 1 h at room temperature; goat anti-human IgG F(ab')2-HRP
T7 construct: RON receptor tyrosine kinase (macrophage-stimulating protein receptor), human, extracellular domain; The legend calls it ECD-Fc; the catalogue number's ending (H08H) may stand for a His-tagged product (surmise); also called human RON protein; source: bought: Sino Biological, 11608-H08H

[6] = target: T6, human c-Met extracellular domain …; test: ELISA; competitive: recombinant human c-Met coated; pre-bound with or without 2.5 µg/mL HGF 1 h at room temperature; then IRCR201 or huOA5D5.v2 1 h; antibody detected with anti-human IgG F(ab')2-HRP

B1: IRCR201 single-chain variable fragment (scFv) (scFv, V domains shown)
VH: EVQLLESGGGLVQPGGSLRLSCAASGFTFSNYAMSWVRQAPGKGLEWVSGISYSGGSTYYADSVKGRFTISRDNSKNTLYLQMNSLRAEDTAVYYCAKASRSCQRPACSYANGMDVWGQGTLVTVSS
VL: QSVLTQPPSASGTPGQRVTISCTGSSSNIGNNYVTWYQQLPGTAPKLLIYYNNHRPSGVPDRFSGSKSGTSASLAISGLQSEDEADYYCGSWDYSLSAYVFGGGTKLTVL
notes: VH and VL as in m1; Detected with anti-HA-peroxidase; also called scFv of IRCR201; IRCR201 scFv; source: E. coli TOP10F', purified from bacterial lysates (Ni-NTA agarose)
[1]
  binding result: binds
[2]
  binding result: binds
[3]
  binding result: binds

B2: IRCR201 (antibody, V domains shown)
VH: B1 VH
VL: B1 VL
notes: CDR-H3 of 18 amino acids; IgG1; frameworks are not pointed to; also called IRCR201 IgG1; fully human bivalent anti-c-Met antibody; source: Expi293 transient mammalian expression system, purified (HiTrap Mabselect SuRe); copies: 2 + 2
Bovine serum albumin
  binding result: no binding
Mouse c-Met ECD-Fc
  Kd: 0.845 nM
  koff: 0.00323 s⁻¹
  kon: 3.83e+06 M⁻¹ s⁻¹
[4]
  Kd: 0.721 nM
  koff: 0.00304 s⁻¹
  kon: 4.23e+06 M⁻¹ s⁻¹
[5]
  binding result: no binding

B3: onartuzumab (huOA5D5.v2) (antibody, V domains shown)
VH: EVQLVESGGGLVQPGGSLRLSCAASGYTFTSYWLHWVRQAPGKGLEWVGMIDPSNSDTRFNPNFKDRFTISADTSKNTAYLQMNSLRAEDTAVYYCATYRSYVTPLDYWGQGTLVTVSS
VL: DIQMTQSPSSLSASVGDRVTITCKSSQSLLYTSSQKNYLAWYQQKPGKAPKLLIYWASTRESGVPSRFSGSGSGTDFTLTISSLQPEDFATYYCQQYYAYPWTFGQGTKVEIK
notes: second chain of the monovalent knob-into-hole format; Engineered monovalent (one-armed) antibody made with knob-into-hole technology; also called MetMab; source: Expi293 transient mammalian expression system, purified (HiTrap Mabselect SuRe); copies: 1 + 1 + 1
[6]
  binding result: binds
